The target of assay [1] is endogenous Fas of Jurkat cells (human) (UniProt P25445). Briefly: cell-based or functional assay.
In the next assay the test system is Jurkat cells. Briefly: Fas-ligand induced apoptosis in Jurkat cells (Trypan Blue, flow cytometry). The assay is classed as cell-based, human. How it is done: For FIG. 4a, Jurkat cells (1.5×10^5) were overnight treated in triplicate with 5 ng/ml of crosslinked human Fas ligand with or without 5 μg/ml of recombinant AlphaMet or 1 μg/ml of the indicated polypeptides. Percent apoptosis was determined by Trypan Blue staining using a hemocytometer. The data are representative and were repeated at least four times. […] The 17 kDa fragment of cleaved Caspase 3 is visualized by this antibody. The blot was reprobed for β-actin as a loading control. For FIG. 4c, serum deprived Hepa 1-6 cells (3×10^5) were overnight treated with 1 μg/ml of crosslinked mouse Fas ligand with or without AlphaMet or the indicated polypeptide. Media were collected and centrifuged to pellet the dead cells. […] The data in FIG. 4c represents three independent experiments.
Apoptosis assay. Pre-washed Jurkat cells in RPMI 1640 medium containing 1% FBS were inoculated in 96-wells at a density of 10^5 cells per well. Apoptosis was induced by cross-linked human Fas-ligand (R&D Systems) at a concentration of 0.5 ng/ml or Anti-Fas (human, activating) clone CH11 (Upstate biotechnology) at a concentration of 500 ng /ml. Hepa 1-6 cells were overnight starved before induction of apoptosis. The apoptosis in Hepa 1-6 was induced by anti-mouse Fas antibody Jo2 (200 ng/ml) or human recombinant Fas-ligand. The extent of cell viability and apoptosis was determined by several methods such as Trypan Blue stain, flow cytometry, LDH assay, and Hoechst staining.

Another assay has as its target T1, Fas-Fc / FasL binding (Mus musculus, UniProt P25446).
T1 construct: purchased R&D
T1 sequence (P25446 22-169 limits assumed): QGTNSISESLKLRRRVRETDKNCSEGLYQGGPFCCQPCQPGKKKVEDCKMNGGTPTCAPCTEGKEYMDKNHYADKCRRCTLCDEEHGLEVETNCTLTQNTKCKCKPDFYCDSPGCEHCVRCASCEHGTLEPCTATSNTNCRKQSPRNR
Briefly: Competition pull down with Fas-Fc, recombinant AlphaMet and recombinant FasL. As to the method: This antibody also recognizes Fas-Fc which is also tagged at the C-terminus by His. In FIG. 2b, a fixed amount of purified recombinant Fas-ligand was added to Fas-Fc in the absence or presence of increasing amounts of AlphaMet as indicated. Samples were subjected to pull down using proteinA agarose followed by Western blot using a polyclonal rabbit anti-FasL antibody. […] Fas ligand (1 μg/ml) was coated in the wells of a microtiter plate (triplicate wells) then 1 μg/ml of Fas-Fc was added in the absence or presence of an increasing amount of the indicated polypeptide. A 13 mer YLGA polypeptide derived from FasL also was synthesized and used. The control peptide was a scrambled 13 mer. Anti human […] conjugates were used to detect the bound Fas-Fc. […] One-way ANOVA was carried out for determination of statistical significance. […] Cells (3×10^5) were plated in 24-well plates having Poly-L-Lysine pre-treated cover glass. 2 μg/ml of Fas ligand was added and the cells were incubated for 30 min on ice. Cells were then washed by PBS twice, and were subjected to immunostaining using anti-Fas ligand antibody and fluorescent microscopy. In Frame A, Fas ligand was not added, in B, only Fas ligand was added, in C-F, Fas ligand was added with different polypeptides as follows: AlphaMet, 12 mer YLGA, control peptide, and YLGA mutated AlphaMet, respectively. […]

Sequence of endogenous Fas of Jurkat cells (human) (P25445 26-335): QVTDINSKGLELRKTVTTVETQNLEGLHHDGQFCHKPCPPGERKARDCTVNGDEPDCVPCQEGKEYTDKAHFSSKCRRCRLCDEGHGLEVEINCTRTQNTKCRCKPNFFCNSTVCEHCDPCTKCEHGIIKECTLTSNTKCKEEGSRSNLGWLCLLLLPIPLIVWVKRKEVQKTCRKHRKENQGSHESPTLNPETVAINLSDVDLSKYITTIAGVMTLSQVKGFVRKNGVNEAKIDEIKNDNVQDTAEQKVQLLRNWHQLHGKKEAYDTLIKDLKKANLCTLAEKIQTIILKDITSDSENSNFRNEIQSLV

B1: alpha subunit of Met (AlphaMet), amino acid residues 1 to 306, His-tagged (receptor, mouse)
chain: MKAPTVLAPGILVLLLSLVQRSHGECKEALVKSEMNVNMKYQLPNFTAETPIQNVVLHGHHIYLGATNYIYVLNDKDLQKVSEFKTGPVLEHPDCLPCRDCSSKANSSGGVWKDNINMALLVDTYYDDQLISCGSVNRGTCQRHVLPPDNSADIQSEVHCMFSPEEESGQCPDCVVSALGAKVLLSEKDRFINFFVGNTINSSYPPGYSLHSISVRRLKETQDGFKFLTDQSYIDVLPEFLDSYPIKYIHAFESNHFIYFLTVQKETLDAQTFHTRIIRFCSVDSGLHSYMEMPLECILTEKRRKRHHHHHH
As for B1, in assay [1], the death rate of Jurkat cells treated with Fas-ligand (Trypan Blue) was 12% and the sub-G1 population of Jurkat cells treated with Fas-ligand (Propidium Iodide, flow cytometry) is 8%. In the assay on Jurkat cells (Fas-ligand overnight, AlphaMet 5 μg/ml, Trypan Blue), this molecule yielded a death rate of 12%. Moreover, the “sub-G1 (apoptotic) population” value with Jurkat cells (Propidium Iodide flow cytometry, Fas-ligand) is 8%. In the assay with Fas-Fc / FasL binding (fixed FasL, increasing amounts of AlphaMet), the “FasL binding to Fas in pull down” value is “blocked the FasL binding to Fas”. Besides, in the assay with Fas-Fc / FasL binding (increasing amounts of FasL), the “binding of AlphaMet to Fas in presence of FasL” value is reported as “completely abrogated by increasing amounts of FasL”.

For the origin of these results see patent US20070184522A1, “Cell death modulation via antagonists of Fasl and Fas activation” (University of Pittsburgh of the Commonwealth System of …, priority 2004, published 2007).
